In patent publication US20230140797A1 (published 2023):
One block for each binder: values may come before it.

What was measured:
Assay in all cases: SPR
[1] = biological target: human FcγRIa extracellular domain with C-terminal His tag (human, UniProt P12314 16-292)
[2] = biological target: T1, human FcγRIIb extracellular domain with C-terminal His tag (human, UniProt P31994 43-217)
T1 sequence (looked up): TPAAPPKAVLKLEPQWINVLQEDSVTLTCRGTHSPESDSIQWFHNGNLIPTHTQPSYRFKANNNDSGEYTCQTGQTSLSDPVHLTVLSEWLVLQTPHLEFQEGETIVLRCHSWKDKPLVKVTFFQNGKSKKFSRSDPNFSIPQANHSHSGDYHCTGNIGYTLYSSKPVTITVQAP

[3] = biological target: human FcγRIIIa type V extracellular domain with C-terminal His tag (human, UniProt P08637 17-208)
[4] = biological target: T2, human FcγRIIa type R extracellular domain with C-terminal His tag (human, UniProt P12318 34-217)
T2 sequence (looked up): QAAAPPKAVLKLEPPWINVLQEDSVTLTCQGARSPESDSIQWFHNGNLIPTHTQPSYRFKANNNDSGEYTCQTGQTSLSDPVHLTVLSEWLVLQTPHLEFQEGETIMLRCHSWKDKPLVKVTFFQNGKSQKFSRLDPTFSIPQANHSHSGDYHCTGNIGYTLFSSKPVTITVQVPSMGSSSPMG

Chain of human FcγRIa extracellular domain with C-terminal His tag (P12314 16-292): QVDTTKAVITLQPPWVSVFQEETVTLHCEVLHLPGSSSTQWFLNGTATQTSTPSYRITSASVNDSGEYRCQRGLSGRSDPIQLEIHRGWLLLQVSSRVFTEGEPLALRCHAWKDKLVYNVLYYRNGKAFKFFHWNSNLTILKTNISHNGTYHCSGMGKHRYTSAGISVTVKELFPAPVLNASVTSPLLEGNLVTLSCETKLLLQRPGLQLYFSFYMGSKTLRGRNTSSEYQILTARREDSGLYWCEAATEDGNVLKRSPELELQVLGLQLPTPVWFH
Chain of human FcγRIIIa type V extracellular domain with C-terminal His tag (P08637 17-208 F176V): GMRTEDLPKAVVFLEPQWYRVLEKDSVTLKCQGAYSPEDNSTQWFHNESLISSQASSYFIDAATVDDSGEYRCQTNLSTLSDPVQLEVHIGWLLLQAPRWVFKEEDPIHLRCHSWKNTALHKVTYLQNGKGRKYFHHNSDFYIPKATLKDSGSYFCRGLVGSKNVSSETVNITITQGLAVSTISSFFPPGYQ

B3: IL6R-BP213/IL6R-L (antibody, human IgG1, kappa)
heavy: QVQLQESGPGLVKPSETLSLTCAVSGHSISHDHAWSWVRQPPGEGLEWIGFISYSGITNYNPSLQGRVTISRDNSKNTLYLQMNSLRAEDTAVYYCARSLARTTAMDYWGEGTLVTVSSASTKGPSVFPLAPSSKSTSGGTAALGCLVKDYFPEPVTVSWNSGALTSGVHTFPAVLQSSGLYSLSSVVTVPSSSLGTQTYICNVNHKPSNTKVDKKVEPKSCDKTHTCPPCPAPDLLGGDSVFLFPPKPKDTLMISRTPEVTCVVVDVSDEDGEVKFNWYVDGVEVHNAKTKPREEQYNSTYRVVSVLTVLHQDWLNGKEYKCKVSNKALPRPIEKTISKAKGQPREPQVYTLPPSRDELTKNQVSLTCLVKGFYPSDIAVEWESNGQPENNYKTTPPVLDSDGSFFLYSKLTVDKSRWQQGNVFSCSVMHEALHNHYTQESLSLSP
light: not shown
Kd [3]: 65 µM

B4: IL6R-BP431/IL6R-L (antibody, human IgG1, kappa)
heavy: QVQLQESGPGLVKPSETLSLTCAVSGHSISHDHAWSWVRQPPGEGLEWIGFISYSGITNYNPSLQGRVTISRDNSKNTLYLQMNSLRAEDTAVYYCARSLARTTAMDYWGEGTLVTVSSASTKGPSVFPLAPSSKSTSGGTAALGCLVKDYFPEPVTVSWNSGALTSGVHTFPAVLQSSGLYSLSSVVTVPSSSLGTQTYICNVNHKPSNTKVDKKVEPKSCDKTHTCPPCPAPDLLGDDSVFLFPPKPKDTLMISRTPEVTCVVVDVGEDDGEVKFNWYVDGVEVHNAKTKPREEQYNSTYRVVSVLTVLHQDWLNGKEYKCKVSNKALPRPIEKTISKAKGQPREPQVYTLPPSRDELTKNQVSLTCLVKGFYPSDIAVEWESNGQPENNYKTTPPVLDSDGSFFLYSKLTVDKSRWQQGNVFSCSVMHEALHNHYTQESLSLSP
light: not shown
Kd [2]: 1.2 nM

B9: IL6R-BP150/IL6R-L (antibody, human IgG1, kappa)
heavy: QVQLQESGPGLVKPSETLSLTCAVSGHSISHDHAWSWVRQPPGEGLEWIGFISYSGITNYNPSLQGRVTISRDNSKNTLYLQMNSLRAEDTAVYYCARSLARTTAMDYWGEGTLVTVSSASTKGPSVFPLAPSSKSTSGGTAALGCLVKDYFPEPVTVSWNSGALTSGVHTFPAVLQSSGLYSLSSVVTVPSSSLGTQTYICNVNHKPSNTKVDKKVEPKSCDKTHTCPPCPAPEYLGDDSVFLFPPKPKDTLMISRTPEVTCVVVDVSHEDPEVKFNWYVDGVEVHNAKTKPREEQYNSTYRVVSVLTVLHQDWLNGKEYKCKVSNAALPRPIEKTISKAKGQPREPQVYTLPPSRDELTKNQVSLTCLVKGFYPSDIAVEWESNGQPENNYKTTPPVLDSDGSFFLYSKLTVDKSRWQQGNVFSCSVMHEALHNHYTQESLSLSP
light: not shown
Kd [1]: 300 nM

B10: IL6R-BP425/IL6R-L (antibody, human IgG1, kappa)
heavy: QVQLQESGPGLVKPSETLSLTCAVSGHSISHDHAWSWVRQPPGEGLEWIGFISYSGITNYNPSLQGRVTISRDNSKNTLYLQMNSLRAEDTAVYYCARSLARTTAMDYWGEGTLVTVSSASTKGPSVFPLAPSSKSTSGGTAALGCLVKDYFPEPVTVSWNSGALTSGVHTFPAVLQSSGLYSLSSVVTVPSSSLGTQTYICNVNHKPSNTKVDKKVEPKSCDKTHTCPPCPAPDLLGDDSVFLFPPKPKDTLMISRTPEVTCVVVDLAEEDGEVKFNWYVDGVEVHNAKTKPREEQYNSTYRVVSVLTVLHQDWLNGKEYKCKVSNKALPRPIEKTISKAKGQPREPQVYTLPPSRDELTKNQVSLTCLVKGFYPSDIAVEWESNGQPENNYKTTPPVLDSDGSFFLYSKLTVDKSRWQQGNVFSCSVMHEALHNHYTQESLSLSP
light: not shown
Kd [2]: 0.1 nM

B11: IL6R-BP184/IL6R-L (antibody, human IgG1, kappa)
heavy: QVQLQESGPGLVKPSETLSLTCAVSGHSISHDHAWSWVRQPPGEGLEWIGFISYSGITNYNPSLQGRVTISRDNSKNTLYLQMNSLRAEDTAVYYCARSLARTTAMDYWGEGTLVTVSSASTKGPSVFPLAPSSKSTSGGTAALGCLVKDYFPEPVTVSWNSGALTSGVHTFPAVLQSSGLYSLSSVVTVPSSSLGTQTYICNVNHKPSNTKVDKKVEPKSCDKTHTCPPCPAPDLLGGDSVFLFPPKPKDTLMISRTPEVTCVVVDVSHEDGEVKFNWYVDGVEVHNAKTKPREEQYNSTYRVVSVLTVLHQDWLNGKEYKCKVSNKALPKPIEKTISKAKGQPREPQVYTLPPSRDELTKNQVSLTCLVKGFYPSDIAVEWESNGQPENNYKTTPPVLDSDGSFFLYSKLTVDKSRWQQGNVFSCSVMHEALHNHYTQESLSLSP
light: not shown
Kd [3]: 0.068 µM

Now from value to binder:

Kd [1]: 3800 nM
B1: IL6R-BP087/IL6R-L (antibody, human IgG1, kappa)
heavy: QVQLQESGPGLVKPSETLSLTCAVSGHSISHDHAWSWVRQPPGEGLEWIGFISYSGITNYNPSLQGRVTISRDNSKNTLYLQMNSLRAEDTAVYYCARSLARTTAMDYWGEGTLVTVSSASTKGPSVFPLAPSSKSTSGGTAALGCLVKDYFPEPVTVSWNSGALTSGVHTFPAVLQSSGLYSLSSVVTVPSSSLGTQTYICNVNHKPSNTKVDKKVEPKSCDKTHTCPPCPAPEYLGGDSVFLFPPKPKDTLMISRTPEVTCVVVDVSHEDPEVKFNWYVDGVEVHNAKTKPREEQYNSTYRVVSVLTVLHQDWLNGKEYKCKVSNKALPKPIEKTISKAKGQPREPQVYTLPPSRDELTKNQVSLTCLVKGFYPSDIAVEWESNGQPENNYKTTPPVLDSDGSFFLYSKLTVDKSRWQQGNVFSCSVMHEALHNHYTQESLSLSP
light: not shown

Kd [2]: 5600 nM
B2: IL6R-BP479/IL6R-L (antibody, human IgG1, kappa)
heavy: QVQLQESGPGLVKPSETLSLTCAVSGHSISHDHAWSWVRQPPGEGLEWIGFISYSGITNYNPSLQGRVTISRDNSKNTLYLQMNSLRAEDTAVYYCARSLARTTAMDYWGEGTLVTVSSASTKGPSVFPLAPSSKSTSGGTAALGCLVKDYFPEPVTVSWNSGALTSGVHTFPAVLQSSGLYSLSSVVTVPSSSLGTQTYICNVNHKPSNTKVDKKVEPKSCDKTHTCPPCPAPDLLGDDSVFLFPPKPKDTLMISRTPEVTCVVIDLAEEDGEVKFNWYVDGVEVHNAKTKPREEQYNSTYRVVSVLTVLHQDWLNGKEYKCKVSNKALPAPIEKTISKAKGQPREPQVYTLPPSRDELTKNQVSLTCLVKGFYPSDIAVEWESNGQPENNYKTTPPVLDSDGSFFLYSKLTVDKSRWQQGNVFSCSVMHEALHNHYTQESLSLSP
light: not shown

Kd [4]: 2500 nM
B5: IL6R-BP183/IL6R-L (antibody, human IgG1, kappa)
heavy: QVQLQESGPGLVKPSETLSLTCAVSGHSISHDHAWSWVRQPPGEGLEWIGFISYSGITNYNPSLQGRVTISRDNSKNTLYLQMNSLRAEDTAVYYCARSLARTTAMDYWGEGTLVTVSSASTKGPSVFPLAPSSKSTSGGTAALGCLVKDYFPEPVTVSWNSGALTSGVHTFPAVLQSSGLYSLSSVVTVPSSSLGTQTYICNVNHKPSNTKVDKKVEPKSCDKTHTCPPCPAPDYLGGDSVFLFPPKPKDTLMISRTPEVTCVVVDVSHEDGEVKFNWYVDGVEVHNAKTKPREEQYNSTYRVVSVLTVLHQDWLNGKEYKCKVSNAALPKPIEKTISKAKGQPREPQVYTLPPSRDELTKNQVSLTCLVKGFYPSDIAVEWESNGQPENNYKTTPPVLDSDGSFFLYSKLTVDKSRWQQGNVFSCSVMHEALHNHYTQESLSLSP
light: not shown

Kd [2]: 51 nM
B6: IL6R-BP436/IL6R-L (antibody, human IgG1, kappa)
heavy: QVQLQESGPGLVKPSETLSLTCAVSGHSISHDHAWSWVRQPPGEGLEWIGFISYSGITNYNPSLQGRVTISRDNSKNTLYLQMNSLRAEDTAVYYCARSLARTTAMDYWGEGTLVTVSSASTKGPSVFPLAPSSKSTSGGTAALGCLVKDYFPEPVTVSWNSGALTSGVHTFPAVLQSSGLYSLSSVVTVPSSSLGTQTYICNVNHKPSNTKVDKKVEPKSCDKTHTCPPCPAPDLLGDDSVFLFPPKPKDTLMISRTPEVTCVVVDVAEEDGEVKFNWYVDGVEVHNAKTKPREEQDNSTYRVVSVLTVLHQDWLNGKEYKCKVSNKALPRPTEKTISKAKGQPREPQVYTLPPSRDELTKNQVSLTCLVKGFYPSDIAVEWESNGQPENNYKTTPPVLDSDGSFFLYSKLTVDKSRWQQGNVFSCSVMHEALHNHYTQESLSLSP
light: not shown

Kd [1]: 18 nM
B7: IL6R-BP143/IL6R-L (antibody, human IgG1, kappa)
heavy: QVQLQESGPGLVKPSETLSLTCAVSGHSISHDHAWSWVRQPPGEGLEWIGFISYSGITNYNPSLQGRVTISRDNSKNTLYLQMNSLRAEDTAVYYCARSLARTTAMDYWGEGTLVTVSSASTKGPSVFPLAPSSKSTSGGTAALGCLVKDYFPEPVTVSWNSGALTSGVHTFPAVLQSSGLYSLSSVVTVPSSSLGTQTYICNVNHKPSNTKVDKKVEPKSCDKTHTCPPCPAPEYLGGDSVFLFPPKPKDTLMISRTPEVTCVVVDVSHEDPEVKFNWYVDGVEVHNAKTKPREEQYNSTYRVVSVLTVLHQDWLNGKEYKCKVSNAALPAPIEKTISKAKGQPREPQVYTLPPSRDELTKNQVSLTCLVKGFYPSDIAVEWESNGQPENNYKTTPPVLDSDGSFFLYSKLTVDKSRWQQGNVFSCSVMHEALHNHYTQESLSLSP
light: not shown

Kd [4]: 950 nM
B8: IL6R-BP186/IL6R-L (antibody, human IgG1, kappa)
heavy: QVQLQESGPGLVKPSETLSLTCAVSGHSISHDHAWSWVRQPPGEGLEWIGFISYSGITNYNPSLQGRVTISRDNSKNTLYLQMNSLRAEDTAVYYCARSLARTTAMDYWGEGTLVTVSSASTKGPSVFPLAPSSKSTSGGTAALGCLVKDYFPEPVTVSWNSGALTSGVHTFPAVLQSSGLYSLSSVVTVPSSSLGTQTYICNVNHKPSNTKVDKKVEPKSCDKTHTCPPCPAPDYLGDDSVFLFPPKPKDTLMISRTPEVTCVVVDVSHEDGEVKFNWYVDGVEVHNAKTKPREEQDNSTYRVVSVLTVLHQDWLNGKEYKCKVSNAALPKPIEKTISKAKGQPREPQVYTLPPSRDELTKNQVSLTCLVKGFYPSDIAVEWESNGQPENNYKTTPPVLDSDGSFFLYSKLTVDKSRWQQGNVFSCSVMHEALHNHYTQESLSLSP
light: not shown
